The values that follow come from the Human Domainome abundance scans (Beltran et al. 2025).

± gives the uncertainty stated by the source.

Sequences and labels used below:
B1: Mineralocorticoid receptor, residues 600 to 675; numbered along this chain, P08235 (parent)
chain: SKICLVCGDEASGCHYGVVTCGSCKVFFKRAVEGQHNYLCAGRNDCIIDKIRRKNCPACRLQKCLQAGMNLGARKS

This data set covers variants of B1. In words: abundance fitness (aPCA) (normalised: wild type 0, dead -1); higher = more abundant; growth selection in yeast, the domain comes from the species named. As to conditions: Homo sapiens.
For Y16G, the abundance fitness is -0.061 ± 0.048.

Consider Y16L, for which the abundance fitness is -0.104 ± 0.039.

On to Y16T, for which the abundance fitness was -0.027 ± 0.049.

As for Y16D, the abundance fitness is -0.025 ± 0.099.

For the variant L5E, the abundance fitness is -0.071 ± 0.089.

Consider L5R, for which the abundance fitness is -0.091 ± 0.042.

Regarding L5P, the abundance fitness is -0.075 ± 0.06.

For L5H, the abundance fitness was -0.239 ± 0.07.

As for L5N, the abundance fitness is -0.068 ± 0.078.

With G22I, the abundance fitness was -0.259 ± 0.1.

For the variant G22T, the abundance fitness was -0.11 ± 0.064.

As for G22N, the abundance fitness is -0.236 ± 0.1.

As to G22A, the abundance fitness was -0.013 ± 0.044.

As for G22Y, the abundance fitness is -0.222 ± 0.12.

Take V26I: the abundance fitness amounted to 0.031 ± 0.13.

On to V26K, for which the abundance fitness amounted to 0.008 ± 0.063.

Regarding V26E, the abundance fitness was -0.022 ± 0.058.

For the variant V26D, the abundance fitness is 0.024 ± 0.068.

With V26H, the abundance fitness was -0.03 ± 0.12.

Regarding V26Q, the abundance fitness stood at 0.001 ± 0.055.

Regarding V26A, the abundance fitness is -0.044 ± 0.05.

A41S: the abundance fitness is -0.077 ± 0.041.

A41E: the abundance fitness was 0.129 ± 0.081.

Turning to A41N, the abundance fitness is -0.079 ± 0.052.

On to A41D, for which the abundance fitness was found to be 0.036 ± 0.051.

In the case of A41W, the abundance fitness was -0.127 ± 0.075.

In the case of A41R, the abundance fitness was -0.021 ± 0.044.

As for V19C, the abundance fitness is -0.108 ± 0.067.

In the case of V19E, the abundance fitness was determined as 0.032 ± 0.056.

V19D: the abundance fitness is -0.008 ± 0.11.

Consider V19T, for which the abundance fitness was -0.113 ± 0.056.

As for V19M, the abundance fitness came to 0.115 ± 0.075.

Turning to V19N, the abundance fitness came to 0.112 ± 0.082.

As for V19K, the abundance fitness was determined as 0.007 ± 0.051.

In the case of V19I, the abundance fitness is -0.086 ± 0.079.

Turning to V19W, the abundance fitness was -0.058 ± 0.05.

For D45N, the abundance fitness is -0.045 ± 0.04.

For D45M, the abundance fitness is -0.057 ± 0.054.

F28N: the abundance fitness is -0.647 ± 0.37.

Turning to F28V, the abundance fitness is -0.322 ± 0.048.

As for F28A, the abundance fitness is -0.263 ± 0.048.

As for F28D, the abundance fitness was -0.782 ± 0.33.

Consider C64G, for which the abundance fitness is -0.02 ± 0.029.

Regarding C64W, the abundance fitness is -0.523 ± 0.052.

Regarding C64A, the abundance fitness was -0.028 ± 0.034.

Regarding C64E, the abundance fitness is -0.851 ± 0.11.

Turning to C64Q, the abundance fitness is -0.315 ± 0.061.

Regarding C64K, the abundance fitness is -0.885 ± 0.14.

On to C64M, for which the abundance fitness is -0.017 ± 0.041.

On to C59S, for which the abundance fitness was -0.762 ± 0.07.

Turning to C59D, the abundance fitness was -0.626 ± 0.093.

Turning to C59E, the abundance fitness is -0.955 ± 0.15.

As for C59R, the abundance fitness is -0.801 ± 0.061.

For C59G, the abundance fitness is -0.917 ± 0.083.

Take V18E: the abundance fitness was -0.202 ± 0.06.

Regarding V18C, the abundance fitness came to 0.112 ± 0.061.

For the variant V18W, the abundance fitness is -0.457 ± 0.066.

On to N55A, for which the abundance fitness is -0.064 ± 0.047.

For the variant N55W, the abundance fitness is -0.085 ± 0.088.

As to A58N, the abundance fitness is -0.03 ± 0.092.

With A58K, the abundance fitness was -0.044 ± 0.049.

Regarding A58Q, the abundance fitness amounted to 0.035 ± 0.061.

A58S: the abundance fitness was 0.012 ± 0.041.

For Q66V, the abundance fitness is -0.039 ± 0.05.

For Q66C, the abundance fitness is -0.023 ± 0.071.

As to Q66W, the abundance fitness is -0.029 ± 0.053.

In the case of Q66E, the abundance fitness is 0.081 ± 0.084.

Take Q66I: the abundance fitness is -0.029 ± 0.1.

As to G34F, the abundance fitness was determined as 0.071 ± 0.085.

Consider G34A, for which the abundance fitness is -0.099 ± 0.06.

Take G34R: the abundance fitness is 0.032 ± 0.054.

Take G34W: the abundance fitness was -0.165 ± 0.092.

As for G34N, the abundance fitness was 0.042 ± 0.08.

Turning to L65D, the abundance fitness is -0.051 ± 0.15.

As for L65T, the abundance fitness was -0.037 ± 0.06.

Regarding L65W, the abundance fitness is -0.035 ± 0.051.

In the case of G17Q, the abundance fitness was -0.065 ± 0.06.

As to G17S, the abundance fitness was -0.044 ± 0.045.

Take G17K: the abundance fitness was -0.054 ± 0.066.

Turning to G17V, the abundance fitness is -0.228 ± 0.05.

With G17R, the abundance fitness was -0.046 ± 0.04.

Regarding G17N, the abundance fitness is -0.126 ± 0.094.

R52Q: the abundance fitness was 0.027 ± 0.059.

With R52W, the abundance fitness is -0.052 ± 0.057.

For the variant R52P, the abundance fitness was -0.081 ± 0.06.

Regarding R52D, the abundance fitness was -0.072 ± 0.092.

For the variant R52H, the abundance fitness was -0.055 ± 0.11.

As for R52M, the abundance fitness is -0.131 ± 0.1.

Take K2I: the abundance fitness was -0.041 ± 0.065.

Consider K2N, for which the abundance fitness was determined as 0.002 ± 0.061.

For K2A, the abundance fitness is -0.066 ± 0.048.

With K2T, the abundance fitness was -0.049 ± 0.06.

As to V6N, the abundance fitness is -0.706 ± 0.45.

For the variant V6I, the abundance fitness worked out at 0.008 ± 0.078.

Turning to S23A, the abundance fitness was -0.125 ± 0.054.

Regarding S23H, the abundance fitness was -0.143 ± 0.15.

Regarding S23G, the abundance fitness is 0.009 ± 0.045.

S23M: the abundance fitness was -0.085 ± 0.067.

In the case of S23Y, the abundance fitness was -0.038 ± 0.09.

For the variant C40S, the abundance fitness was -1.05 ± 0.14.

With C40H, the abundance fitness is -0.341 ± 0.11.

As to C40N, the abundance fitness is -0.477 ± 0.13.

Consider C40I, for which the abundance fitness is -0.759 ± 0.14.

As to E33G, the abundance fitness was found to be 0.062 ± 0.044.

For the variant L39K, the abundance fitness was -0.009 ± 0.053.

On to L39V, for which the abundance fitness was -0.007 ± 0.035.

Consider K63S, for which the abundance fitness was -0.104 ± 0.037.

For K63L, the abundance fitness is -0.092 ± 0.04.

K63M: the abundance fitness was -0.074 ± 0.065.

Turning to K63N, the abundance fitness was -0.058 ± 0.046.

In the case of K63Y, the abundance fitness is -0.137 ± 0.049.

As to R53Q, the abundance fitness is -0.058 ± 0.068.

For the variant R53D, the abundance fitness was -0.024 ± 0.35.

In the case of R53T, the abundance fitness is -0.042 ± 0.07.

With R53M, the abundance fitness is -0.167 ± 0.09.

Turning to R53V, the abundance fitness is 0.025 ± 0.073.

As for R53C, the abundance fitness is -0.159 ± 0.15.

With R53L, the abundance fitness is -0.098 ± 0.076.

For the variant G42A, the abundance fitness is 0.005 ± 0.043.

With G42D, the abundance fitness worked out at 0.051 ± 0.057.

On to G42W, for which the abundance fitness was -0.126 ± 0.077.

As to G42L, the abundance fitness was -0.009 ± 0.043.

For G42I, the abundance fitness was -0.033 ± 0.044.

For the variant G42M, the abundance fitness stood at 0.045 ± 0.1.

Turning to G68K, the abundance fitness was -0.217 ± 0.07.

Consider G68I, for which the abundance fitness was -0.266 ± 0.2.

For G68L, the abundance fitness was -0.484 ± 0.069.

For the variant G68V, the abundance fitness was -0.518 ± 0.071.

On to G68W, for which the abundance fitness is -0.447 ± 0.072.

Take G68Q: the abundance fitness is -0.153 ± 0.1.

Take G68S: the abundance fitness was -0.222 ± 0.055.

For the variant G68N, the abundance fitness was -0.152 ± 0.1.

Take I47D: the abundance fitness is -0.065 ± 0.057.

Take I47L: the abundance fitness stood at 0.022 ± 0.044.

Turning to I47C, the abundance fitness turned out to be 0.049 ± 0.057.

In the case of I47P, the abundance fitness amounted to 0.013 ± 0.058.

Take C24S: the abundance fitness was -0.867 ± 0.14.

Take C24A: the abundance fitness was -0.983 ± 0.15.

As to C24R, the abundance fitness is -0.855 ± 0.11.

Consider T20Q, for which the abundance fitness was -0.244 ± 0.081.

As to T20I, the abundance fitness was -0.082 ± 0.075.

Regarding T20V, the abundance fitness was 0.032 ± 0.046.

As to T20E, the abundance fitness is -0.522 ± 0.1.

C14Y: the abundance fitness was -0.069 ± 0.11.

As to C14M, the abundance fitness was found to be 0.015 ± 0.06.

On to C14H, for which the abundance fitness was -0.003 ± 0.092.

Turning to C14E, the abundance fitness was -0.012 ± 0.058.

C14V: the abundance fitness was -0.008 ± 0.044.

For C46I, the abundance fitness was -0.827 ± 0.11.

As to C46A, the abundance fitness was -0.744 ± 0.12.

Take C46V: the abundance fitness was -0.813 ± 0.15.

C46K: the abundance fitness is -0.839 ± 0.17.

For the variant C46D, the abundance fitness was -0.785 ± 0.23.

Take C46F: the abundance fitness is -0.653 ± 0.065.

As for C46Q, the abundance fitness is -0.966 ± 0.2.

Consider P57H, for which the abundance fitness is -0.002 ± 0.04.

Take P57F: the abundance fitness was -0.016 ± 0.045.

For P57I, the abundance fitness is -0.168 ± 0.044.

With P57E, the abundance fitness was -0.048 ± 0.078.

Regarding P57L, the abundance fitness is -0.142 ± 0.036.

Turning to P57S, the abundance fitness was -0.051 ± 0.039.

Turning to P57W, the abundance fitness was -0.027 ± 0.059.

For P57K, the abundance fitness worked out at 0.006 ± 0.057.

As to S12G, the abundance fitness was -0.181 ± 0.074.

Consider S12E, for which the abundance fitness worked out at 0.103 ± 0.11.

For the variant S12Q, the abundance fitness was -0.019 ± 0.095.

Turning to S12K, the abundance fitness was -0.124 ± 0.13.
